Patent publication US5773694

Legend:
[1] = target: Ace-AMP1 (Allium cepa - Antimicrobial Protein 1), mature protein purified from Allium cepa seeds (Allium cepa)
[2] = target: reduced and S-carboxyamidomethylated Ace-AMP1 (Allium cepa)

Row | Substance | Relative antifungal activity (% of control activity) after protease digestion (% of control activity) [1] | further results
1 | Chymotrypsin (enzyme) | 80 | 
2 | Pronase E (enzyme) | 5 | 
3 | Proteinase K (enzyme) | 60 | 
4 | Trypsin (enzyme) | 90 | 
5 | endoproteinase Arg-C (sequencing grade, Boehringer) (enzyme) |  | peptides separated by RP-HPLC after digestion (separable peptides) [2]: > 10
6 | endoproteinase Asp-N (sequencing grade, Boehringer) (enzyme) |  | protein fragments separated by RP-HPLC after digestion (protein fragments) [2]: 3
